The text below walks through data of patent US10005846B2, “Anti-transglutaminase 2 antibodies” (MEDICAL RESEARCH COUNCIL TECHNOLOGY, priority 2012, dated 2018).

Changes are numbered by the printed parent chain.

Sequences and labels used below:
B1: cDC001: chimeric DC1 antibody: murine variable regions, human IgG1 and human kappa (antibody, V domains shown)
VH: EVQLVESGGGLVKPGGSLKLSCAASGFTLSTHAMSWVRQTPEKRLEWVATISSGGRSTYYPDSVKGRFTISRDNVKNTLYLQLSSLRSEDTAVYFCARLISTYWGQGTTLTVSS
VL: DITMTQSPSSIYASLGERVTITCKASQDINSYLTWFQQKPGKSPKILIYLVNRLVDGVPSRFSGSGSGQDYALTISSLEYEDMGIYYCLQYDDFPYTFGGGTKLEIK
B2: hAB005: humanised AB1 antibody; heavy chain version RHA with light chain version RKJ (antibody, V domains shown)
VH: EVQLLESGGGLVQPGGSLRLSCAASGFTFSSSAMSWVRQAPGKGLEWVSTISVGGGKTYYPDSVKGRFTISRDNSKNTLYLQMNSLRAEDTAVYYCAKLISLYWGQGTLVTVSS
VL: DIQMTQSPSSLSASVGDRVTITCKASQDINSYLTWFQQKPGKAPKSLIYRTNRLFDGVPSRFSGSGSGTDFFLTISSLQPEDFATYYCLQYDDFPYTFGQGTKVEIK
B3: hBB001BB: humanised BB7 antibody (heavy chain hBB001HB, light chain hBB001KB by name) (antibody, V domains shown)
VH: B2 VH with F27I, T28I, S49A, V53S, G56R, K57S, I70V, N74S, L102P
VL: B2 VL with Q3K, S46T, R50L, F55M, T69Q, D70E, F72L, D92V
B4: hAB004: humanised AB1 antibody; heavy chain version RHA with light chain version RKE (antibody, V domains shown)
VH: B2 VH
VL: B2 VL with D1E, Q3V, M4L, F36Y, S46L, L73F, A84G, Q100G, V104L

The term koff denotes the rate constant with which the complex falls apart. Lower therefore signals slow dissociation. Broadly, the kon is a measure of how fast the partners come together.

One test relates to WI-38 cells. The test can be described thus: Scratch wound assay in WI-38 cells. The test is classed as cell-based, human. The conditions noted are these: serum free media; Cytochalasin D 0.1 μM, R281 100 μM, Z DON 10 μM and 100 μM, Cub7402 5 μg/ml. On the procedure:
WI-38 cells (normal human lung fibroblasts ATCC cat#CCL-75) were plated in a 96 well Image Lock plate (Essen cat#4379) at 2×10^4/well in αMEM media (Life Technologies cat#32561) with 10% FBS and grown O/N to >97% confluence. Cells were washed 2× with αMEM media without serum and a scratch wound was generated using an Essen Wound Maker and the manufacturers protocol. The media was removed and replaced with 95 μl/well serum free media. Controls and test antibodies were added to the wells. The plate was placed in an Essen Incucyte and the closure of the wound was analysed using the scratch wound protocol.
Cytochalasin D was used as an assay control at 0.1 μM. R281, a small molecule non-specific transglutaminase inhibitor, was tested at 100 μM. Z DON, a peptide non reversible transglutaminase inhibitor was tested at 10 μM and 100 μM. The commercially available TG2 antibody Cub7402 (ABcam cat#ab2386) was tested at 5 μg/ml. Antibodies of the invention were tested on at least three occasions at various concentrations as indicated. In all experiments controls were Cytochalasin D at 0.1 uM and ZDON at two concentrations to show a dose dependant effect.
Take B1: the “effect on wound closure” value is listed as “inhibited wound closure”.

With B2, the “effect on wound closure” value is recorded as “inhibited wound closure”.

The next test deals with T1, human TG2 (Homo sapiens, UniProt P21980).
T1 sequence (P21980 1-687): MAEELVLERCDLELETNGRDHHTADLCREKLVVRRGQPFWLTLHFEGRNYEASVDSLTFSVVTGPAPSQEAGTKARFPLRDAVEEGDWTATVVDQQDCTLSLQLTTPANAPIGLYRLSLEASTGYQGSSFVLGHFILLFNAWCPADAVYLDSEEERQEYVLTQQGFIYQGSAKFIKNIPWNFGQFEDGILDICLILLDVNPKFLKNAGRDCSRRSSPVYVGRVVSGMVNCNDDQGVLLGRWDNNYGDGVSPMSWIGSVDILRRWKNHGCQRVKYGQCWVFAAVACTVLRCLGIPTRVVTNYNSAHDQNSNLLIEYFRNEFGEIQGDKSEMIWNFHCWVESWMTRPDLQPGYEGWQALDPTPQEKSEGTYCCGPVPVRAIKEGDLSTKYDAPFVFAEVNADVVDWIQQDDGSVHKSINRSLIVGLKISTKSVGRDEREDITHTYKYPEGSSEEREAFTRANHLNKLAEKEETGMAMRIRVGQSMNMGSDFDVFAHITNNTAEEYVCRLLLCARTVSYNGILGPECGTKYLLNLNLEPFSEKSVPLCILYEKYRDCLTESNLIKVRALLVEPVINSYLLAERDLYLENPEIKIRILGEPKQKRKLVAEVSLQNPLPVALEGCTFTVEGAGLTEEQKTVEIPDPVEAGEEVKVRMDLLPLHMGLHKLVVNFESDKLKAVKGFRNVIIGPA
In words: Biacore (SPR) affinity, human TG2. The test is classed as binding. The conditions noted are these: +Ca^2+ (1 mM CaCl2 running buffer; includes rows without a Ca mark). Also noted: purchased Zedira GmbH T002. The method, then: (§1) Recombinant human TG2 was obtained from Zedira GmbH (cat. no.: T002). Recombinant cynomolgus monkey TG2 was obtained from Trenzyme. Surface plasmon resonance (SPR) was measured on a Biacore T200 instrument (GE Healthcare). CM5 chips (GE Healthcare cat. no.: BR-1006-68) were coated with monoclonal mouse anti-human IgG1 (Fc) (MAH) antibody (GE Healthcare cat. no.: BR-1008-39) by amine-coupling as described in the manufacturers instructions. HBS-EP+ buffer (0.01 M HEPES, 0.15 M NaCl, 3 mM EDTA, 0.05% v/v Surfactant P20) and HBS-P+ buffer (0.01 M HEPES, 0.15 M NaCl, 0.05% Surfactant P20) were purchased from GE Healthcare as 10× stocks (cat. nos.: BR-1006-69 and BR-1006-71). Calcium Chloride solution was obtained from Sigma Aldrich (cat. no.:21115).
(§2) The method employed to determine the affinity of the anti-TG2 antibodies involved the capture of the chimeric or humanised antibodies on a MAH coated CM5 chip, followed by the injection of a series of TG2 samples in running buffer. The running buffer was 1×HBS-P+ containing 1 mM CaCl2, or 1×HBS-EP+ for calcium-free experiments. Antibody capture was carried out for a contact time of 120 seconds at a flow rate of 10 μl/min resulting in the capture of approximately 40-80 RU. TG2 was injected over the immobilised antibody at concentrations ranging from 25 nM to 400 nM with a contact time up to 600 seconds at a flow rate of 30 μl/min. Dissociation of TG2 was typically measured for up to 5400 seconds (1.5 hours). Regeneration of the chip was then performed using 3 M MgCl2, for a contact time of 60 seconds at a flow rate of […], followed by a 300 s stabilisation period before the next sample. For each of human and cynomolgus monkey TG2, at least 5 injections at a variety of concentrations were performed in at least two separate experiments.
(§3) Kinetic data were exported from the Biacore T200 Evaluation Software and analysed using GraphPad Prism, where the association phases and dissociation phases were analysed separately using a one phase association model and one-phase exponential decay model respectively. Association rates (kon) were calculated for each curve individually, and dissociation rates (koff) values from the long dissociation phase data collected. Where koff values were calculated to be <1×10^−5 s^−1, values were set at 1×10^−5 for analysis, as rates slower than this could not be estimated accurately. Values for kon and koff are presented in the tables below as the mean of the individual calculated values for each antibody for each TG2 species from multiple concentrations +/−1 standard deviation. KD values are calculated as mean koff/mean kon.
Take B1: the koff was <10^−5 s^−1 and the on-rate (kon) came out at 320000 M⁻¹ s⁻¹.

B3: the koff was <10^−5 s^−1 and the kon was found to be 240000 M⁻¹ s⁻¹.

Consider B2, for which the off-rate (koff) is <10^−5 s^−1 and the kon was found to be 190000 M⁻¹ s⁻¹.

For B4, the koff was determined as 2.4e-05 s⁻¹ and the kon was 200000 M⁻¹ s⁻¹.

The target in a further test is T1, human TG2. The test can be described thus: Fluorescence-based transglutaminase assay (dansylated lysine into N,N-dimethylated casein), human TG2. Format: biochemical. Also noted: purchased Zedira GmbH T002. The conditions noted are these: 1 nM human TG2. On the procedure:
Transglutaminase activities of purified human (Zedira) or cynomogolus monkey TG2 enzymes (Trenzyme) were measured by incorporation of dansylated lysine K×D (Zedira) into N,N-dimethylated casein (DMC, Sigma). Human or cynomogolus monkey TG2 were diluted in transamidation buffer (25 mM HEPES pH 7.4 containing 250 mM NaCl, 2 mM MgCl2, 5 mM CaCl2, 0.2 mM DTT and 0.05% v/v Pluronic F-127) to 1 nM and 10 nM respectively and mixed with various concentrations of protein-A purified murine, chimeric or humanised TG2 antibodies for 180 min at room temperature in 384-well black microtiter plates (Corning). Reactions were initiated by addition of DMC and K×D to a final concentration of 10 uM and 20 uM respectively and a final reaction volume of 30 ul, and allowed to proceed at RT for 180 min and the increase in fluorescence (RFU) (excitation at 280 nm, emission 550 nm) monitored using a Tecan Safire^2 plate reader. Data were normalised to percentage activity where % activity=(RFU test antibody−RFU low controls)/RFU high controls−RFU low controls)×100, where low controls contained all components except enzyme and high controls contained all components except antibody.
Antibody dose response curves were plotted using GraphPad prism software and fitted using a 4-parameter logistical model to return IC50 and other statistical parameters. The results are illustrated in FIGS. 29 to 33.
Regarding B1, the “inhibition of human TG2 transamidation (in words)” value (“inhibition” for short) is listed as “potent inhibition of TG2 activity in the low nanomolar range”.

With B3, the “inhibition” value is recorded as “potent inhibition of TG2 activity in the low nanomolar range”.

Turning to B2, the “inhibition” value is listed as “potent inhibition of TG2 activity in the low nanomolar range”.

In the case of B4, the “inhibition” value is recorded as “potent inhibition of TG2 activity in the low nanomolar range”.

A further test concerns the target T1, human TG2. The test can be described thus: ELISA assay for TG2 binding, human TG2. Also noted: purchased Zedira GmbH T002.
Conditions: not given
The method, then: Antibody binding to human and cynomolgus monkey TG2 was determined in an ELISA assay. Clear polystyrene “Maxisorp” 96-well plates (Nunc) were coated with 50 ng purified human or cynomogulus monkey TG2 in 50 μl 0.05 M carbonate-bicarbonate buffer pH 9.6 at 4° C. overnight. Control wells were coated with 50 μl 100 μg/ml bovine serum albumin (BSA). Plates were washed 3× with 300 μl phosphate-buffered saline pH7.4 (PBS) containing 0.1% Tween 20 (PBST) and blocked with 300 μl 3% w/v Marvel skimmed milk in PBS for 1 hour at room temperature. After 3× wash with PBST, 50 μl protein-A purified chimeric or humanised anti-TG2 antibodies or human IgG1 kappa isotope control antibody or CUB7402 (Abcam) were serially diluted 4-fold from a top concentration of 50 nM in PBS, and added to the plate in duplicate. […] After 3× washes with PBST, the plates were developed with 50 μl TMB substrate (Sigma) for 5 min at room temperature before stopping the reaction with 25 μl 0.5M H2SO4 and reading absorbance at 450 nm in a microtiter plate reader (BioTek EL808). Dose response curves were analysed and EC50 values and other statistical parameters determined using a 4-parameter logistical fit of the data (GraphPad Prism).
(In general: In an ELISA, binding on a coated surface is turned into a signal by an enzyme label.)
For the molecule B3, the “ELISA binding to human TG2 (in words)” value is listed as “comparable EC50 values”.

As for B4, the “ELISA binding to human TG2 (in words)” value is recorded as “comparable EC50 values”.

The subject of the next test is Cynomolgus TG2. The test can be described thus: Biacore (SPR) affinity, cynomolgus TG2. The test is classed as binding, cynomolgus monkey. To be noted: +Ca^2+ (1 mM CaCl2 running buffer; includes rows without a Ca mark). On the procedure: as §1, §2, §3
For B1, the off-rate (koff) is listed as <10^−5 s^−1 and the kon was found to be 420000 M⁻¹ s⁻¹.

For B3, the koff turned out to be 3.7e-05 s⁻¹ and the kon was 270000 M⁻¹ s⁻¹.

The molecule B2 yielded a koff of 3.4e-05 s⁻¹ and a kon of 140000 M⁻¹ s⁻¹.

With B4, the koff came to 1.8e-05 s⁻¹ and the kon turned out to be 160000 M⁻¹ s⁻¹.
